Measurements published in paper PMC8131196, “Structure and dynamics of a mycobacterial type VII secretion system” (Nature, 2021).

B1: MycP5 protease (enzyme)
chain: ISPPTIDPGALPPDGPPGPLAPMKQNAYCTEVGVLPGTDFQLQPKYMEMLNLNEAWQFGRGDGVKVAVIDTGVTPHPRLPRLIPGGDYVMAGGDGLSDCDAHGTLVASMIAAVPANGAVPLPSVPRRPVTIPTTETPPPPQTVTLSPVPPQTVTVIPAPPPEEGVPPGAPVPGPEPPPAPGPQPPAVDRGGGTVTVPSYSGGRKIAPIDNPRNPHPSAPSPALGPPPDAFSGIAPGVEIISIRQSSQAFGLKDPYTGDEDPQTAQKIDNVETMARAIVHAANMGASVINISDVMCMSARNVIDQRALGAAVHYAAVDKDAVIVAAAGDGSKKDCKQNPIFDPLQPDDPRAWNAVTTVVTPSWFHDYVLTVGAVDANGQPLSKMSIAGPWVSISAPGTDVVGLSPRDDGLINAIDGPDNSLLVPAGTSFSAAIVSGVAALVRAKFPELSAYQIINRLIHTARPPARGVDNQVGYGVVDPVAALTWDVPKGPAEPPKQLSAPLVVPQPPAPRDMVPIWVAAGGLAGALLIGGAVFGTATLMRRSRKQQ
notes: also called mycosin
B2: EccC5 (natural protein)
chain: MKRGFARPTPEKPPVIKPENIVLSTPLSIPPPEGKPWWLIVVGVVVVGLLGGMVAMVFASGSHVFGGIGSIFPLFMMVGIMMMMFRGMGGGQQQMSRPKLDAMRAQFMLMLDMLRETAQESADSMDANYRWFHPAPNTLAAAVGSPRMWERKPDGKDLNFGVVRVGVGMTRPEVTWGEPQNMPTDIELEPVTGKALQEFGRYQSVVYNLPKMVSLLVEPWYALVGEREQVLGLMRAIICQLAFSHGPDHVQMIVVSSDLDQWDWVKWLPHFGDSRRHDAAGNARMVYTSVREFAAEQAELFAGRGSFTPRHASSSAQTPTPHTVIIADVDDPQWEYVISAEGVDGVTFFDLTGSSMWTDIPERKLQFDKTGVIEALPRDRDTWMVIDDKAWFFALTDQVSIAEAEEFAQKLAQWRLAEAYEEIGQRVAHIGARDILSYYGIDDPGNIDFDSLWASRTDTMGRSRLRAPFGNRSDNGELLFLDMKSLDEGGDGPHGVMSGTTGSGKSTLVRTVIESLMLSHPPEELQFVLADLKGGSAVKPFAGVPHVSRIITDLEEDQALMERFLDALWGEIARRKAICDSAGVDDAKEYNSVRARMRARGQDMAPLPMLVVVIDEFYEWFRIMPTAVDVLDSIGRQGRAYWIHLMMASQTIESRAEKLMENMGYRLVLKARTAGAAQAAGVPNAVNLPAQAGLGYFRKSLEDIIRFQAEFLWRDYFQPGVSIDGEEAPALVHSIDYIRPQLFTNSFTPLEVSVGGPDIEPVVAQPNGEVLESDDIEGGEDEDEEGVRTPKVGTVIIDQLRKIKFEPYRLWQPPLTQPVAIDDLVNRFLGRPWHKEYGSACNLVFPIGIIDRPYKHDQPPWTVDTSGPGANVLILGAGGSGKTTALQTLICSAALTHTPQQVQFYCLAYSSTALTTVSRIPHVGEVAGPTDPYGVRRTVAELLALVRERKRSFLECGIASMEMFRRRKFGGEAGPVPDDGFGDVYLVIDNYRALAEENEVLIEQVNVIINQGPSFGVHVVVTADRESELRPPVRSGFGSRIELRLAAVEDAKLVRSRFAKDVPVKPGRGMVAVNYVRLDSDPQAGLHTLVARPALGSTPDNVFECDSVVAAVSRLTSAQAPPVRRLPARFGVEQVRELASRDTRQGVGAGGIAWAISELDLAPVYLNFAENSHLMVTGRRECGRTTTLATIMSEIGRLYAPGASSAPPPAPGRPSAQVWLVDPRRQLLTALGSDYVERFAYNLDGVVAMMGELAAALAGREPPPGLSAEELLSRSWWSGPEIFLIVDDIQQLPPGFDSPLHKAVPFVNRAADVGLHVIVTRTFGGWSSAGSDPMLRALHQANAPLLVMDADPDEGFIRGKMKGGPLPRGRGLLMAEDTGVFVQVAATEVRR
notes: also called EccC5 ATPase; not shown: TwinStrep, C-terminal, kept

Experiments:
Experiment in all cases: cryo-EM structure
cryo-EM structure = molecular target: the molecule itself
EccC5 = molecular target: B2; settings: both partners purified
MycP5 protease = molecular target: B1; settings: both partners purified

| Binder | stoichiometry N (cryo-EM structure) | binding result (EccC5) | binding result (MycP5 protease) | binding result (cryo-EM structure) |
| --- | --- | --- | --- | --- |
| B1 | 3 | – | – | – |
| EccB5 (natural protein, also called inner EccB5; outer EccB5) MAEESRGQRGSGYGLGLSTRTQVTGYQFLARRTAMALTRWRVRMEIEPGRRQTLAVVASVSAALVICLGALLWSFISPSGQLNESPIIADRDSGALYVRVGDRLYPALNLASARLITGRPDNPHLVRSSQIATMPRGPLVGIPGAPSSFSPKSPPASSWLVCDTVATSSSIGSLQGVTVTVIDGTPDLTGHRQILSGSDAVVLRYGGDAWVIREGRRSRIEPTNRAVLLPLGLTPEQVSQARPMSRALFDALPVGPELLVPEVPNAGGPATFPGAPGPIGTVIVTPQISGPQQYSLVLGDGVQTLPPLVAQILQNAGSAGNTKPLTVEPSTLAKMPVVNRLDLSAYPDNPLEVVDIREHPSTCWWWERTAGENRARVRVVSGPTIPVAATEMNKVVSLVKADTSGRQADQVYFGPDHANFVAVTGNNPGAQTSESLWWVTDAGARFGVEDSKEARDALGLTLTPSLAPWVALRLLPQGPTLSRADALVEHDTLPMDMTPAELVVPK | 6 | binds | binds | – |
| B2 | – | – | – | binds |
